Assays:
[1] = molecular target: T1, SOX9 D-HMG (high solubility variant) (Homo sapiens) (UniProt P48436); assay: EMSA; conditions: 10 mM sodium phosphate pH 6.0, 100 mM NaCl, 5 mM EDTA, on ice 30 min (1 h for 32P titrations); 9 nM DNA for Kd, 2 uM DNA for SYBR Green EMSA
T1 sequence: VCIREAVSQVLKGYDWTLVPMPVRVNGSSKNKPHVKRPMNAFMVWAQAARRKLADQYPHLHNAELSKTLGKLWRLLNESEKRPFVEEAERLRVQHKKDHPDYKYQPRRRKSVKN

SOX9 D-HMG L145E = SOX9 D-HMG L145E (Homo sapiens, UniProt P48436 71-184, L145E); assay: EMSA; dimerization retained; 10 mM sodium phosphate pH 6.0, 100 mM NaCl, 5 mM EDTA, on ice 30 min (1 h for 32P titrations); 9 nM DNA for Kd, 2 uM DNA for SYBR Green EMSA; conditions: protein: recombinant; tags: 6xHis; chain copies: 2; label: 32P 5' for Kd; unlabeled (SYBR Green) in mutant EMSA; blunt; self-complementary, 2 copies of one strand
SOX9 D-HMG A118E = SOX9 D-HMG A118E (Homo sapiens, UniProt P48436 71-184, A118E); assay: as above; conditions: protein: recombinant; tags: 6xHis; chain copies: 2; label: 32P 5' for Kd; unlabeled (SYBR Green) in mutant EMSA; blunt; self-complementary, 2 copies of one strand
SOX9 D-HMG A119E = SOX9 D-HMG A119E (Homo sapiens, UniProt P48436 71-184, A119E); assay: EMSA; dimerization lost; single and double occupancy bands; 10 mM sodium phosphate pH 6.0, 100 mM NaCl, 5 mM EDTA, on ice 30 min (1 h for 32P titrations); 9 nM DNA for Kd, 2 uM DNA for SYBR Green EMSA; conditions: protein: recombinant; tags: 6xHis; chain copies: 2; label: 32P 5' for Kd; unlabeled (SYBR Green) in mutant EMSA; blunt; self-complementary, 2 copies of one strand
SOX9 D-HMG L142Q = SOX9 D-HMG L142Q (Homo sapiens, UniProt P48436 71-184, L142Q); assay: as above; conditions: protein: recombinant; tags: 6xHis; chain copies: 2; label: 32P 5' for Kd; unlabeled (SYBR Green) in mutant EMSA; blunt; self-complementary, 2 copies of one strand
SOX9 HMG [2] = molecular target: T2, SOX9 HMG (Homo sapiens, UniProt P48436 110-184); assay: EMSA; Hill 2.2 ± 0.4; 10 mM sodium phosphate pH 6.0, 100 mM NaCl, 5 mM EDTA, on ice 30 min (1 h for 32P titrations); 9 nM DNA for Kd, 2 uM DNA for SYBR Green EMSA; conditions: protein: recombinant; tags: 6xHis; label: 32P 5' for Kd; unlabeled (SYBR Green) in mutant EMSA; blunt; self-complementary, 2 copies of one strand
SOX9 HMG [3] = molecular target: T2, SOX9 HMG; assay: EMSA; Hill 1.6 ± 0.5; 10 mM sodium phosphate pH 6.0, 100 mM NaCl, 5 mM EDTA, on ice 30 min (1 h for 32P titrations); 9 nM DNA for Kd, 2 uM DNA for SYBR Green EMSA; conditions: protein: recombinant; tags: 6xHis; label: 32P 5'; blunt

## GGGATCCTACACAAAGCCGGCTTTGTGTAGGATCCC (double strand) [CC36]
[1]
  Kd: 0.098 µM

## GGGTTAACAGAACAATGGAATCTGGTAGA (double strand) [S9WT]
[1]
  Kd: 0.082 µM

B1: CC36 (dsDNA)
DNA 1: GGGATCCTACACAAAGCCGGCTTTGTGTAGGATCCC
DNA 2: B1 DNA 1
SOX9 D-HMG L145E
  binding result: binds
SOX9 D-HMG A118E
  binding result: binds
SOX9 D-HMG A119E
  binding result: binds
SOX9 D-HMG L142Q
  binding result: binds
SOX9 HMG [2]
  Kd: 0.109 ± 0.01 µM

B2: S9WT (dsDNA)
DNA 1: GGGTTAACAGAACAATGGAATCTGGTAGA
DNA 2: TCTACCAGATTCCATTGTTCTGTTAACCC
SOX9 HMG [3]
  Kd: 0.101 ± 0.033 µM

Source: PMC4988710, “A Model for Dimerization of the SOX Group E Transcription Factor Family”
